Assay [1] deals with Myc-GST融合蛋白. Briefly: ELISA, Myc-GST coated at 5 μg/mL, HRP anti-His second antibody, heat test at 70℃ for 30 min. A general note: ELISA stands for enzyme-linked immunosorbent assay.
Assay [2] deals with Myc-GST融合蛋白. Briefly: ELISA, Myc-GST coated at 5 μg/mL, HRP anti-His second antibody, heat test at 90℃ for 30 min.
Assay [3] has as its target Myc-GST融合蛋白. Briefly: ELISA, Myc-GST coated at 5 μg/mL, HRP anti-His second antibody, heat test at 80℃ for 30 min.

B1: 抗c-Myc标签单域重链抗体 (VHH, not shown: small tags and cut ends)
VHH: QLQLVESGGGEVHPGGSLTLSCEVSGINPAYYAIGWFHQSPGKEREGVACISQGGAKTNYADSVKGRFTISRDSAKNTVYLHMNSLQSEDTGSYYCARRRGAYCTESNSAGDYASWGQGTQVTVST
For the molecule B1, the figures for the OD450 in the assay with Myc-GST融合蛋白 [1], in the assay with Myc-GST融合蛋白 [2] and in the assay with Myc-GST融合蛋白 [3] were 1.4, 1.1 and 1.3, respectively.

Source of the values: patent CN107042091A.
